In patent publication US11046945B2, “Labeled glutaminase proteins, isolated glutaminase protein mutants, methods of use, and kit” (CORNELL UNIVERSITY, priority 2013, dated 2021):
Where a chain is given by its changes, count along the chain named. Names and notes keep the numbering of the source.

T1: GAC (Mus musculus, UniProt D3Z7P3)
T1 construct: plasmid (residues 72-603 for GAC, 72-674 for KGA); His-tag with thrombin cleavage site (N, cleaved yes); made in house; host or cells: pET23a vector
T1 sequence (D3Z7P3 72-603 isoform D3Z7P3-2): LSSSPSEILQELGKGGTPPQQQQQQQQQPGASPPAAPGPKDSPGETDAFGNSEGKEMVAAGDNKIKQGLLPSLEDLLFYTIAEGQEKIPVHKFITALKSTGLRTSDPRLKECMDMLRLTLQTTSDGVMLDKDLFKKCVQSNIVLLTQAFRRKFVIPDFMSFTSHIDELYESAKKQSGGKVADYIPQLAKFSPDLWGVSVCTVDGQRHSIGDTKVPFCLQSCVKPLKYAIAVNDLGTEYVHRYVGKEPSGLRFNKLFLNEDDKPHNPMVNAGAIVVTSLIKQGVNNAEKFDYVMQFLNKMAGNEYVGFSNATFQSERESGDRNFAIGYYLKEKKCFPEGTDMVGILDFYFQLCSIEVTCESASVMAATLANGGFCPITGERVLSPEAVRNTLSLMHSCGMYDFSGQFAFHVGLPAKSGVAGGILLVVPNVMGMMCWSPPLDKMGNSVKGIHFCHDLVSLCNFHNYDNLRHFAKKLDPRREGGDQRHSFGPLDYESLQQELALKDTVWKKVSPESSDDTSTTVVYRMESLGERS

B1: QSY® 9-GAC (WT): wild type recombinant mouse GAC labeled with the non-fluorescent acceptor QSY 9 succinimidyl ester (protein)
chain: T1 sequence (D3Z7P3 72-603 isoform D3Z7P3-2)
B2: QSY® 9-GAC (D391K): QSY 9-labeled constitutive GAC dimer mutant D391K (protein)
chain: T1 sequence (D3Z7P3 72-603 isoform D3Z7P3-2) with D320K
B3: QSY® 9-GAC (K316E, D391K, R459E): QSY 9-labeled monomer GAC mutant K316E/D391K/R459E (protein)
chain: T1 sequence (D3Z7P3 72-603 isoform D3Z7P3-2) with K245E, D320K, R388E

These molecules were tested against T1, GAC (assay: FRET assay of GAC tetramer formation (488-GAC donor, QSY 9-GAC acceptor)). Conditions: 200 nM QSY 9-labeled protein added to 20 nM 488-WT-GAC.
Type: binding
Excerpt: A mouse kidney type glutaminase isoform 1 (KGA, NP_001074550.1, which is hereby incorporated by reference in its entirety (SEQ ID NO:7)) and isoform 2 (GAC, NP_001106854.1, which is hereby incorporated by reference in its entirety (SEQ ID NO:3)) plasmid (residues 72-603 for GAC, 72-674 for KGA) was cloned into a pET23a vector containing an N-terminal histidine (His)-tag and thrombin cleavage site. The expressed protein was initially purified using Co^2+ affinity beads (Clontech), after which the His-tag was cleaved with human thrombin (Haemetologic Technologies) overnight at 4° C. and subsequently purified by anion exchange (GE healthcare) and gel filtration chromatography. Purified GAC or KGA was stored in a high salt containing buffer (20 mM Tris-HCl pH 8.5, 500 mM NaCl, 1 mM NaN3) and stored at −80° C. following snap freezing in liquid N2 for long term use. For labeling recombinant GAC or KGA with small molecule probes, 1.5 mg of enzyme was exchanged to 50 mM HEPES pH 7.2, 100 mM NaCl using a PD10 desalting column (GE healthcare) and incubated with 50 μM (5-fold excess of enzyme) of either ALEXA FLUOR® 488 succinimidyl ester or QSY® 9 succinimidyl ester (Molecular Probes) for 1 hr at 4° C. After 1 hr, the labeling reaction was quenched with 150 mM Tris-HCl pH 8.5 and unreacted probe was separated from labeled-enzyme using a PD10 desalting column eluting labeled-GAC back into the high salt containing buffer.
Fluorescence experiments were performed using a Varian Carry Eclipse Fluorometer in the counting mode. Excitation and emission wavelengths were 490 and 520 nm, respectively. Experiments were all prepared as one-mL samples and stirred continuously at 20° C. in 50 mM Tris-Acetate pH 8.5, 0.1 mM ethylenediaminetetraacetic acid (EDTA). For WT GAC titrations in the absence of inorganic phosphate, 10 nM 488-GAC was equilibrated followed by injection of 25 μL of the appropriate concentration of QSY® 9-GAC and was allowed to equilibrate for 10 minutes at which point 75 μL of the appropriate concentration of unlabeled WT GAC was added to give a concentration that was ten-times that of labeled-GAC (i.e., 10-fold excess). For FRET experiments prepared for inorganic phosphate titrations, a similar protocol was followed whereby 10 nM of 488-GAC was equilibrated with 400 nM QSY® 9-GAC followed by injection of 100 μL of the appropriate concentration of K2HPO4 prepared in 50 mM Tris-Acetate (pH=8.5) 0.1 mM EDTA buffer. To test whether purified mutants can form oligomers with WT GAC, 200 nM QSY® 9-D391K-GAC or 200 nM QSY® 9-K316E-D391K-R459E was added to an equilibrated sample of 20 nM 488-WT GAC. Likewise, when assaying the effects of BPTES and 968 on oligomer formation, BPTES or 968 (10 μM or 25 μM, respectively) was added following equilibration of a sample of 200 nM of QSY® 9-WT GAC and 20 nM 488-WT GAC. Both BPTES and 968 were prepared in DMSO, and appropriate dilutions were made so that less than 2% (v/v) DMSO was added to an experimental sample.

EFRET max / energy transfer on addition to 488-GAC (WT) | Molecule
approximately 0.3 | B1
only a minor extent of FRET | B2
no observable energy transfer | B3
